Source: patent US20100325744A1

Key:
[1] = biological target: 2F8-HG (human); test: self-association of HG half-molecules; non-covalent nano-electrospray mass spectrometry
[2] = biological target: 2F8-HG (human); test: self-association; non-covalent nano-electrospray mass spectrometry at 0.01-10 µM

For 2F8-HG (antibody), the percentage molecules present as monomers [1] was 15% and the percentage monomeric at low concentrations [2] was 100%.
